US20080227696A1 (BIOSURFACE ENGINEERING TECHNOLOGIES, published 2008)
Where no end group is shown, it is not given here. [ ]: non-standard residue; d: D form. Ahx = NCCCCCC(=O)O

Biological target: T1, Soluble PDGF receptor, recombinant chimera of human PDGF-R-alpha (R&D Systems) (human, UniProt P16234 24-524)
T1 construct: Bought from R&D Systems; immobilized on a CM5 chip by EDC/NHS; not shown: called a recombinant chimera
Test: SPR, BIAcore 2000, receptor immobilized on CM5 chip, peptide as analyte, 1:1 global fit
Protocol: Surface Plasmon Resonance (SPR) Analysis. Real-time biomolecular interactions were analyzed with a BIAcore 2000 system (Biacore Inc., Piscataway, N.J.). Soluble PDGF receptor, recombinant chimera of human PDGF-R-alpha and PSGF-R-beta (R &D Systems, Minneapolis, Minn.), was immobilized on research grade CM5 chips (Biacore Inc., Piscataway, N.J.). Following activation with EDC/NHS, the receptors were immobilized on activated CM5 chips. To obtain kinetic data, different concentrations of analytes in HBS-EP buffer were injected over the sensor chip at a flow rate of 50 μl/min. Peptide binding was measured in resonance units (RU). At the end of each sample injection (120 s) buffer was passed over the sensor surface to monitor the dissociation phase. Reference responses from blank flow cells were subtracted from receptor-containing flow cells for each analyte injection and the kinetic parameters for each interaction were determined by globally fitting the experimental data to a 1:1 interaction with BIAEVALUATION software (Biacore Inc., Piscataway, N.J.). The association rate constant and the dissociation rate constant (kₐ and kd, respectively), and the equilibrium dissociation constant (KD) are presented in the Table 4 for the receptors and PBA2-1.

T1 sequence (P16234 24-524, change not shown): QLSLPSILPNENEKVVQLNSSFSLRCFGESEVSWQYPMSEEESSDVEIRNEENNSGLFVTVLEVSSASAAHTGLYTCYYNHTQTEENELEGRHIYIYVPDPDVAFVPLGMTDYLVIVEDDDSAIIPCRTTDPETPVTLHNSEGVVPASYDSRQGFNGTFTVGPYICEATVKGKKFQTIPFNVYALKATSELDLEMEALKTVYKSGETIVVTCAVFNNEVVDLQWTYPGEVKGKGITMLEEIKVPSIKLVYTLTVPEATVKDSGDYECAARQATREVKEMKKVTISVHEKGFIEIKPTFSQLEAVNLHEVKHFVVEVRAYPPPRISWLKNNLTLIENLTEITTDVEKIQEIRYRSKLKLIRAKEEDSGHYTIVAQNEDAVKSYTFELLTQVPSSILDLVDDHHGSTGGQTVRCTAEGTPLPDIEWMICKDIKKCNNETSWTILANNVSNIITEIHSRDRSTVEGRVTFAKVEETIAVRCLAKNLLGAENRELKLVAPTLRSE

B1: PBA2-1 (peptide)
chain 1: VRKIEIVRKKK[Ahx][Ahx][Ahx]RKRKLERIAR-NH2
chain 2: VRKIEIVRKK
modifications: also: chain 2 bound through its C-terminus to the side chain of Lys11 of chain 1 (branched homodimer), bond at chain A 11 to a chain's C-terminus
notes: also called mimetic of PDGF; PDGF analog PBA2-1
  Kd: 23.3 nM
